Patent publication US20260226161A1 (EXELIXIS, published 2026)
Each block holds one binder with its values, some of them ahead of it.

Legend:
[1] = biological target: T1, NKG2A expressed on KHYG-1 cells (endogenous) (human, UniProt P26715 1-233; Q13241 1-179); assay: flow cytometry on KHYG-1 cells expressing endogenous NKG2A
T1 construct: whole, on cells; Surface NKG2A copy number of approximately 10-20K; also called KHYG-1 cells expressing endogenous NKG2A; NKG2A-expressing cells
Procedure: (§1) Cells were collected by centrifugation at 400×g for 7 minutes and primary antibody was removed. 50 μL per well of AF488 goat anti human IgG Fab (Jackson Immuno Research 109-547-003) at 1:100 dilution was added. Plates were placed at 4° C. for 30 minutes.
(§2) Cells were collected by centrifugation at 400×g for 7 minutes and secondary antibody was removed. Cells were resuspended in 50 μL per well of PBS and analyzed by flow cytometry. Binding curves were calculated using the mean fluorescence intensity (MFI) of the FITC fluorescence signal on the cells. Bispecific antibody binding was evaluated in KHYG-1 cells expressing endogenous NKG2A and in MC/CAR cells expressing PD-L1. Cells were harvested and assayed for binding as described above.

PD-L1 expressed on cells [2] = biological target: T2, PD-L1 expressed on cells (UniProt Q9NZQ7 19-290, limits assumed); assay: flow cytometry on MC/CAR cells expressing PD-L1
T2 construct: whole, on cells; also called MC/CAR cells expressing PD-L1; PD-L1+MDA-MB-231 cells
Procedure: as §1, §2

[3] = biological target: T1, NKG2A expressed on KHYG-1 cells …; assay: flow cytometry competition; inhibition of HLA-E tetramer binding to KHYG-1 cells
Procedure: 15 μL per well of binder dilution at 2× concentration was plated in a 96-well plate (Costar 3897). 15 μL per well of cell suspension at 5×10⁶ cells per mL was added. Plates were placed at 4° C. for 30 minutes. Following the incubation, 5 μL per well of Fc block (BD Pharmingen Cat #564220) was added at a final concentration of 500 ng per well. Plates were placed at 4° C. for 10 minutes. […] Plates were placed at 4° C. for 1 hour. Following the incubation, 100 μL per well of PBS was added and plate was centrifuged at 400×g for 7 minutes. Supernatant was removed by flicking the plate. Cells were resuspended in 50 μL per well of PBS and analyzed by flow cytometry (Intellicyt).

PD-L1 expressed on cells [4] = biological target: T2, PD-L1 expressed on cells; assay: cell-based or functional assay

T1 sequence (P26715 whole entry, chain 1 of 2): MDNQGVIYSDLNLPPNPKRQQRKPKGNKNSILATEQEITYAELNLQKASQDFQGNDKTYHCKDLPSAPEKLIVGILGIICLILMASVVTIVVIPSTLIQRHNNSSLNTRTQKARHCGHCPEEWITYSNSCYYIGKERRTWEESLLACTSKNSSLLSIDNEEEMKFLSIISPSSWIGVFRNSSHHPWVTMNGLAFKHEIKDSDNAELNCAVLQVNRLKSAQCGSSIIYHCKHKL
T1 sequence (Q13241 whole entry, chain 2 of 2): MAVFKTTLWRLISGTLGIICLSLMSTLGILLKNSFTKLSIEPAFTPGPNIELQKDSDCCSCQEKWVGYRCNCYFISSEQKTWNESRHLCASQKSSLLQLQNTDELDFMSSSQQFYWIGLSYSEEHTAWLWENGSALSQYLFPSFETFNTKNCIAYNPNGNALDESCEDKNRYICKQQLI
T2 sequence (Q9NZQ7 19-290 limits assumed): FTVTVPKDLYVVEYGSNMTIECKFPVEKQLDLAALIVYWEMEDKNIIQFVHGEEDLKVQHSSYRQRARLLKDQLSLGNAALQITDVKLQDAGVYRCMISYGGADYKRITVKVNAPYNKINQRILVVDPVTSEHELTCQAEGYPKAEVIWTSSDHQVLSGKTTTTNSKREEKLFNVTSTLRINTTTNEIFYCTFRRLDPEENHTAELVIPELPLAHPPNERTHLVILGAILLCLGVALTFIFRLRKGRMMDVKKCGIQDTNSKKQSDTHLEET

- EC50 [1]: 0.827 nM
- EC50 (PD-L1 expressed on cells [2]): 8.67 nM
- EC50 [3]: 46.4 nM
- IC50 of inhibiting PD-1/PD-L1 interaction in PD-L1+MDA-MB-231 cells (PD-1/PD-L1 Signaling Bioassay, chemiluminescent signal) (PD-L1 expressed on cells [4]): 0.714 nM
B1: P12P12 × A2 (2 × 1 format) (bispecific antibody)
heavy 1: DIQMTQSPSSLSASVGDRVTITCRASQSVSSAVAWYQQKPGKAPKLLIYSASSLYSGVPSRFSGSRSGTDFTLTISSLQPEDFATYYCQQFMLEPITFGQGTKVEIKGQPREPQVCTLPPSRDELTKNQVSLTCLVRGFYPSDIAVEWESNGQPENNYKTTPPVLDSDGSFFLYSKLTVDKSRWQQGNVFSCSVMHEALHNHYTQKSLSLSPGKTASSGGSSSGDIQMTQSPSSLSASVGDRVTITCRASQSVSSAVAWYQQKPGKAPKLLIYSASSLYSGVPSRFSGSRSGTDFTLTISSLQPEDFATYYCQQFMLEPITFGQGTKVEIKGQPREPQVCTLPPSRDELTKNQVSLTCLVRGFYPSDIAVEWESNGQPENNYKTTPPVLDSDGSFFLYSKLTVDKSRWQQGNVFSCSVMHEALHNHYTQKSLSLSPGKDKTHTCPPCPAPEAAGGPSVFLFPPKPKDTLMISRTPEVTCVVVDVSHEDPEVKFNWYVDGVEVHNAKTKPREEQYNSTYRVVSVLTVLHQDWLNGKEYKCKVSNKALKAPIEKTISKAKGQPREPQVYTLPPSREEMTKNQVSLSCAVKGFYPSDIAVEWESNGQPENNYKTTPPVLDSDGSFFLVSKLTVDKSRWQQGNVFSCSVMHEALHNHYTQKSLSLSPGK
light 1: EVQLVESGGGLVQPGGSLRLSCAASGFTFSSYYIHWVRQAPGKGLEWVATINSRGGFTLYADSVKGRFTISADTSKNTAYLQMNSLRAEDTAVYYCARGYTLTPVLDYWGQGTLVTVSSAQPREPQVYTLPPCRDWLTKNQVSLTCLVKGFYPSDIAVEWESNGQPENNYKTTPPVLDSDGSFFLYSKLTVDKSRWQQGNVFSCSVMHEALHNHYTQKSLSLSPGK
heavy 2: not shown
light 2: EVQLVESGGGLVQPGGSLRLSCAASGFTFSSYYIHWVRQAPGKGLEWVASYVPEDGYTDYADSVKGRFTISADTSKNTAYLQMNSLRAEDTAVYYCARSSDFIPWTSSGGMDYWGQGTLVTVSSASTKGPSVFPLAPSSKSTSGGTAALGCLVKDYFPEPVTVSWNSGALTSGVHTFPAVLQSSGLYSLSSVVTVPSSSLGTQTYICNVNHKPSNTKVDKKVEPKSC
notes: Two PD-L1 sites, one NKG2A site; also called P12P12 × A2 sFc

- EC50 [1]: 1.99 nM
- EC50 (PD-L1 expressed on cells [2]): 3.23 nM
- IC50 of inhibiting PD-1/PD-L1 interaction in PD-L1+MDA-MB-231 cells (PD-1/PD-L1 Signaling Bioassay, chemiluminescent signal) (PD-L1 expressed on cells [4]): 0.405 nM
B2: P12P12 × A11 (2 × 1 format) (bispecific antibody)
heavy 1: B1 heavy 1
light 1: B1 light 1
heavy 2: not shown
light 2: EVQLVESGGGLVQPGGSLRLSCAASGFTFSWYYIHWVRQAPGKGLEWVAVIDPISSYTYYADSVKGRFTISADTSKNTAYLQMNSLRAEDTAVYYCARGFDRAMDYWGQGTLVTVSSASTKGPSVFPLAPSSKSTSGGTAALGCLVKDYFPEPVTVSWNSGALTSGVHTFPAVLQSSGLYSLSSVVTVPSSSLGTQTYICNVNHKPSNTKVDKKVEPKSC
notes: Two PD-L1 sites, one NKG2A site; also called P12P12 × A11 sFc
